Experimental findings from PMC2736636 are described below.

Common to all, as to experiment: EMSA
The target of series [1] is T1, O6-alkylguanine-DNA alkyltransferase (AGT, MGMT) (human, UniProt P16455 1-207).
Series [2] deals with T1, O6-alkylguanine-DNA alkyltransferase …. The source holds these as a separate data set.
Series [3] has the same target. This is another data set of the same source.

Where two headings read alike, the source gives them in different places.

T1 sequence (P16455 whole entry): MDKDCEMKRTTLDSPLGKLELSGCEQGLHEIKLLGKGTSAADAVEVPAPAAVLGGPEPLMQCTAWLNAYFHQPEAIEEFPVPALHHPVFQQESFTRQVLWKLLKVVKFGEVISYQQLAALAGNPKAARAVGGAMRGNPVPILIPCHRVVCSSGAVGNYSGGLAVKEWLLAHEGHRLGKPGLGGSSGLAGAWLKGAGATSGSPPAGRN

B1: duplex 16mer (A/B) (dsDNA)
DNA 1: GACTGACTGACTGACT
DNA 2: AGTCAGTCAGTCAGTC
B1: the figures for the Ka in series [1], in series [2] and in series [3] were 2.58e+06 M⁻¹, 3.97 ± 0.02 log10 M-1 and 16900 M⁻¹, respectively.
